Biological target: T1, human VEGF-R2(KDR):Fc fusion protein (R&D Systems) (human, UniProt P35968 20-764)
T1 construct: Bought reagent, coated on Maxisorp plates; also called VEGF receptor; human VEGF receptor; not shown: Fc part of the bought fusion
Experiment: ELISA on plates coated with VEGF-R2(KDR):Fc; bound VEGF detected with biotinylated anti-VEGF

T1 sequence (P35968 20-764 limits assumed): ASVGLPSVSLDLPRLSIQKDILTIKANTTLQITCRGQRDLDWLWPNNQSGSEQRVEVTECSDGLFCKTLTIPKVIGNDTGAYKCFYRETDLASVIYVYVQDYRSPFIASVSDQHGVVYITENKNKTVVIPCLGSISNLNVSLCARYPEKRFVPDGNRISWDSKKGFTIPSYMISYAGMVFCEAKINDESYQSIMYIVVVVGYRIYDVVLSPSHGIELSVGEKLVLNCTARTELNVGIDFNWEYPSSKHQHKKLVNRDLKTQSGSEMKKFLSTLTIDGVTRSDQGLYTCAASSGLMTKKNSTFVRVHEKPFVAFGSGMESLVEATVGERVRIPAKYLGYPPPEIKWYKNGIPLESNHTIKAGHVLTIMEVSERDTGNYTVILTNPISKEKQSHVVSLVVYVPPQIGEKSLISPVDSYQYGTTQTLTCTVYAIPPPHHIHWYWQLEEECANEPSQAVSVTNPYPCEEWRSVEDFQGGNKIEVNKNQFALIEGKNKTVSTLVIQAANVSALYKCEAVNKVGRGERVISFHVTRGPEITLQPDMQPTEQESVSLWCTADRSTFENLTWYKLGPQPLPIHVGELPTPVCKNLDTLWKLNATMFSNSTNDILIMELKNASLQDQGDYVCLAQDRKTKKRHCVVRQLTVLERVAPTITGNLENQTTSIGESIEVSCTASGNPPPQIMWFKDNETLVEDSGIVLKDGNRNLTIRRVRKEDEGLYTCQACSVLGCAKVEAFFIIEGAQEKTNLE

binding result: binds
B1: algal-expressed human vascular endothelial growth factor (VEGF) isoform 121, without signal peptide, with C-terminal FLAG-tag, made in the C. reinhardtii … (ligand)
chain: MVPAPMAEGGGQNHHEVVKFMDVYQRSYCHPIETLVDIFQEYPDEIEYIFKPSCVPLMRCGGCCNDEGLECVPTEESNITMQIMRIKPHQGQHIGEMSFLQHNKCECRPKKDRARQENCDKPRRGTGENLYFQGSGGGGSDYKDDDDKGTG
notes: Native VEGF is active as a dimer; also called algal VEGF; algae-derived VEGF
